Data: EP4696711A1 (Jiangsu Hengrui Pharmaceuticals Co., Ltd., dated 2024)

B1: M4-H1L1 (antibody, human IgG1, kappa)
heavy: not shown
light: DIQMTQSPSSLSASVGDRVTITCSASSSVFNMNWYQQKPGKSPKLWIYDISKLASGVPSRFSGSGSGTDFTLTISSLQPEDFATYYCQQRSFYPPTFGGGTKVEIKRTVAAPSVFIFPPSDEQLKSGTASVVCLLNNFYPREAKVQWKVDNALQSGNSQESVTEQDSKDSTYSLSSTLTLSKADYEKHKVYACEVTHQGLSSPVTKSFNRGEC
notes: humanized IgG1/kappa
B2: M4H1L1-ZalH4 (bispecific antibody, human IgG1, kappa)
heavy: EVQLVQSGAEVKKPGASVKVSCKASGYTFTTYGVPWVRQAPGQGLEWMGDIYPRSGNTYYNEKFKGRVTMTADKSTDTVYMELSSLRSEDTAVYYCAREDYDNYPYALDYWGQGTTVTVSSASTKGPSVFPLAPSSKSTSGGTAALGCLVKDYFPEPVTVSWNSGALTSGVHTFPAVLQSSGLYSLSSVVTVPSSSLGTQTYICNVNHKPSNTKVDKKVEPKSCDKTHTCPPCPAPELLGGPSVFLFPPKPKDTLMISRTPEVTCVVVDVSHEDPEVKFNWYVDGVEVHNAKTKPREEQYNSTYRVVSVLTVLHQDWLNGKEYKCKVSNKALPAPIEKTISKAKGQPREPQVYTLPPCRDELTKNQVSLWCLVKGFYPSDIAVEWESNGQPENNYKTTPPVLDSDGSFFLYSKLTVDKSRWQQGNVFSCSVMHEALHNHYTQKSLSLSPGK
light: B1 light
chain 1: not shown
chain 2: DIQLTQSPSSLSASVGDRVTITCRASQDISSALVWYQQKPGKAPKLLIYDASSLESGVPSRFSGSESGTDFTLTISSLQPEDFATYYCQQFNSYPLTFGGGTKVEIKGGGGSSGAPRFLTRPKASVVSVGKDATLSCQIVGNPFPQVSWEKDKQPVTAGVRFRLAQDGDLYRLKILDLQLSDSGQYVCRARNAHGEAFACLGLQVDAEA

Molecular target: T1, Cynomolgus MUC1 his (Cat. # MU1-C52H5, Acro) (cynomolgus)
T1 construct: His-tagged, bought; also called Cyno MUC1-His
Test: SPR (Biacore T200), antibody captured on Protein A

Binder	Kd [nM]
B1	18.9
B2	17.8
